Measurements published in IntAct's records for PubMed 15358143.

Target: ppia_human PPIA (UniProt P62937)
Sequence (P62937 whole entry, looked up): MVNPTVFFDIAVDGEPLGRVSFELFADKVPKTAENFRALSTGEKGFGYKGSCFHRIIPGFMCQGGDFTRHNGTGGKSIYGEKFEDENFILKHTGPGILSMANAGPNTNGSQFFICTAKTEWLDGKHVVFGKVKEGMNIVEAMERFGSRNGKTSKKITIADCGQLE

Row | Substance | effect of a mutation on the interaction
1 | Nucleoprotein (Human SARS coronavirus), P59595 I305A | decreasing interaction strength
2 | Nucleoprotein (Human SARS coronavirus), P59595 Q307A | decreasing interaction strength
3 | Nucleoprotein (Human SARS coronavirus), P59595 Q307D | decreasing interaction strength
4 | Nucleoprotein (Human SARS coronavirus), P59595 W302A | decreasing interaction strength
